Assay results: patent US20240052042A1 (Novartis, published 2024)

Experiments:
Assay in all cases: FabCys affinity determination
rat NPR1 (rNPR1) = molecular target: T1, rat NPR1 (rNPR1) (rat, UniProt P18910 29-469, limits assumed)
T1 construct: Soluble antigen
T1 sequence: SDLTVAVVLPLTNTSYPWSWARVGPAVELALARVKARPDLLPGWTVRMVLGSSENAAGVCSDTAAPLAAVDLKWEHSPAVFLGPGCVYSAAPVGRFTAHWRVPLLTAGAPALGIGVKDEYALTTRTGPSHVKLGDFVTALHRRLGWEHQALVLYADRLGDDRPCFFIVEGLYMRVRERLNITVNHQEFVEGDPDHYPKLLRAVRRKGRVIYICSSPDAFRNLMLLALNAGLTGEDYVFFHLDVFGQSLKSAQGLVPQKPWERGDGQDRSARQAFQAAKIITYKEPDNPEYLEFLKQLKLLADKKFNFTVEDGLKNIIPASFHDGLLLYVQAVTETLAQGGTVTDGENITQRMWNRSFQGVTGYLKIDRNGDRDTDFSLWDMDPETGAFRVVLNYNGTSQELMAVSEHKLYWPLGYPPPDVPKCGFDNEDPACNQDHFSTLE

rNPR1-ANP complex = molecular target: T2, rNPR1-ANP complex (rat, UniProt P01160 124-151 (human entry), limits assumed)
T2 construct: rNPR1 antigen in the presence of ANP; also called rNPR1 + 100 nM ANP
T2 sequence: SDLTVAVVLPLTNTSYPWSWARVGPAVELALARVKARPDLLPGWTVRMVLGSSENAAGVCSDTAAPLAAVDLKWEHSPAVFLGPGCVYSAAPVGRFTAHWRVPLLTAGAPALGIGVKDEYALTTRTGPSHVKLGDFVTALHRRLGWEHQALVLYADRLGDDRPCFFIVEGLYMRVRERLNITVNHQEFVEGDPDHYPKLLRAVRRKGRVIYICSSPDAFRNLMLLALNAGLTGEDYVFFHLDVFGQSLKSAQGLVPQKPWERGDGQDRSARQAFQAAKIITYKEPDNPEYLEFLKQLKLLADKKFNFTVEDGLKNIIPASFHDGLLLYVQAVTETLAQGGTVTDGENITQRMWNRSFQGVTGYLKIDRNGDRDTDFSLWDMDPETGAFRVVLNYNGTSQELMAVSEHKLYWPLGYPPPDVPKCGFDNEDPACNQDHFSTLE
T2 sequence (peptide): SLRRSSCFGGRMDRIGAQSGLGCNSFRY

hNPR1-ANP complex = molecular target: T3, hNPR1-ANP complex (human, UniProt P01160 124-151, limits assumed)
T3 construct: hNPR1 antigen in the presence of ANP; also called hNPR1 + 100 nM ANP
T3 sequence: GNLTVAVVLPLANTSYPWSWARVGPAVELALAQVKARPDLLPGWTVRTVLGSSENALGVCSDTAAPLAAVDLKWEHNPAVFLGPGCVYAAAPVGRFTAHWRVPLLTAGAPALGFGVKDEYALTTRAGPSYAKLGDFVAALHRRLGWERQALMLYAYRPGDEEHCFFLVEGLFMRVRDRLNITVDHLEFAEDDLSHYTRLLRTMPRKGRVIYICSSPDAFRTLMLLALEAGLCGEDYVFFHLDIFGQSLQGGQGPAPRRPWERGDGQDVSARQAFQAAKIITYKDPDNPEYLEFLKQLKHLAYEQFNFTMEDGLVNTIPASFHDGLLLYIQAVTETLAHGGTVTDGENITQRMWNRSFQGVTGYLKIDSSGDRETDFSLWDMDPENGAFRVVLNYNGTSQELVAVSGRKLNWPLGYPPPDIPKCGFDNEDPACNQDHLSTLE
T3 sequence (peptide): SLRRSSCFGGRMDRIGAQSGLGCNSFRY

Measured: Kd

B1: YY03 (FabCys format) (Fab, V domains shown)
VH: EVQLLESGGGLVQPGGSLRLSCAASGFTFSSYAISWVRQAPGKGLEWVSAISGSGGSTYYAESVKGRFTISRDNSKNTLYLQMNSLRAEDTAVYYCARESGYVYYLKFDYWGQGTLVTVSS
VL: DIQMTQSPSSLSASVGDRVTITCRASQSISSYLNWYQQKPGKAPKLLIYAASSLQSGVPSRFSGSGSGTDFTLTISSLQPEDFATYYCQQHVRVPITFGQGTKVEIK
notes: Monovalent FabCys
0.1 nM: all assays above
